Measurements published in article PMC12524728, “Integrating Structural Bioinformatics and Functional Mechanisms of Sesquiterpene Synthases CARS and CADS in Lavandula angustifolia (Lavender)” (International Journal of Molecular Sciences, 2025).

Assays:
Test in all cases: enzyme kinetics, Hanes-Woolf plot
Type in all cases: biochemical, Lavandula angustifolia
Conditions in all cases: Mg2+-dependent enzyme; assay conditions only in supplement
[1] = system: T1, CC(C)=CCC/C(C)=C/CC/C(C)=C/CO[P@@](=O)(O)OP(=O)(O)O
T1 construct: C-terminal deletion of residues 522-548; host and tags only in supplement
Text: enzyme kinetics, Hanes-Woolf plot on ∆522–548 (CARS)

[2] = system: T2, CC(C)=CCC/C(C)=C/CC/C(C)=C/CO[P@@](=O)(O)OP(=O)(O)O
T2 construct: C-terminal deletion of residues 529-555; host and tags only in supplement
Text: enzyme kinetics, Hanes-Woolf plot on ∆529–555 (CADS)

[3] = substrate: CC(C)=CCC/C(C)=C/CC/C(C)=C/CO[P@@](=O)(O)OP(=O)(O)O
Text: enzyme kinetics, Hanes-Woolf plot on CADS (wild-type, full-length)

[4] = substrate: CC(C)=CCC/C(C)=C/CC/C(C)=C/CO[P@@](=O)(O)OP(=O)(O)O; remark: listed apart in the source
Text: enzyme kinetics, Hanes-Woolf plot on ∆1–228 (CADS)

[5] = substrate: CC(C)=CCC/C(C)=C/CC/C(C)=C/CO[P@@](=O)(O)OP(=O)(O)O; remark: listed apart in the source
Text: enzyme kinetics, Hanes-Woolf plot on ∆1–226 (CARS)

[6] = substrate: CC(C)=CCC/C(C)=C/CC/C(C)=C/CO[P@@](=O)(O)OP(=O)(O)O; remark: listed apart in the source
Text: enzyme kinetics, Hanes-Woolf plot on CARS (wild-type, full-length)

## ∆522–548 (CARS) (Lavandula angustifolia; DEL522-548)
[1]
  Km: 4.96 ± 0.17 µM
  kcat: 0.391 ± 0.0115 s⁻¹

## ∆529–555 (CADS) (Lavandula angustifolia; DEL529-555)
[2]
  Km: 7.13 ± 0.29 µM
  kcat: 0.44 ± 0.00883 s⁻¹

B1: CADS (wild-type, full-length) (Lavandula angustifolia) (protein)
chain: MATSAVVNCLGGVRPHTIRYEPNMWTHTFSNFSIDEQVQGEYAEEIEALKQEVRSMLTAATTCKEQLILIDTLERLGLSYHFETEIEQKLKEIILHINREEDASGGDCDLYTTSLGFRVIRQHQYHISCGVFEKYLDKDGKFEESLSSDTEGILSLYEAAHVRFRDETLLQEAARFSRHHLKGMEEVLESPLREKVQRALQHPLHRDIPIFYAHFFISNIYQKDDSRNELLLKLAKSNFMFLQNLYKEELSQLSRWWNKFDLKSKLPYARDRLVEAYIWGVGYHYEPRYAYVRRGLVIGIQIIAIMDDTYDNYATVDEAQLFTEMFERWSMDGIDGVPDYLKIAYHFVVSAFEDYERDAGKLGKQFAAPYFKQTIQQLARAYNQELKWVMGTQSMPSFQDYAKNSEITSCIYIMSASVFHGLESVTQETIDWLKNEPNFAVSTGMIGRYWDDIGSHERESRGGKMLTAVGCYMKQYGVSKKEAVRKFREQVEDLWKDVNKGYTAMTCMPRETAVLFLNYARMCDASYTENNDDGYTDPDFSKRKISALFLDPLVF
notes: full-length, codon-optimised gene; monomer by DLS; host and tags only in supplement
[3]
  Km: 15.86 ± 0.21 µM
  kcat: 0.0993 ± 0.00383 s⁻¹

B2: ∆1–228 (CADS) (Lavandula angustifolia) (protein)
chain: ELLLKLAKSNFMFLQNLYKEELSQLSRWWNKFDLKSKLPYARDRLVEAYIWGVGYHYEPRYAYVRRGLVIGIQIIAIMDDTYDNYATVDEAQLFTEMFERWSMDGIDGVPDYLKIAYHFVVSAFEDYERDAGKLGKQFAAPYFKQTIQQLARAYNQELKWVMGTQSMPSFQDYAKNSEITSCIYIMSASVFHGLESVTQETIDWLKNEPNFAVSTGMIGRYWDDIGSHERESRGGKMLTAVGCYMKQYGVSKKEAVRKFREQVEDLWKDVNKGYTAMTCMPRETAVLFLNYARMCDASYTENNDDGYTDPDFSKRKISALFLDPLVF
notes: N-terminal deletion of residues 1-228; host and tags only in supplement
[4]
  Km: 11.13 ± 0.37 µM
  kcat: 0.2937 ± 0.00233 s⁻¹

B3: ∆1–226 (CARS) (Lavandula angustifolia) (protein)
chain: ETLLNFAKLDFNLVQKIHQKELNQITRWWKELDFGKNLPFARDRPVECYFWIVGVYFEPRYGIARTLLTKIIYLASVLDDIYDVYGTLAELTIFTQIIRRWDSDAMDQLPPYMRIYCKALFDVYVEMEEEMGKIRKSYAVEYAKKEMKRLAEMYFQEAQWAFSKYKPTMKEYLKVALISSGYMMMTINSLTTIEDLITEEEFNWILSEPRILRASLTITRLMDDLAGYGTEGKMSAVHYYMAENGVSEGEAFKEVSGIIKSAWKDVNAECVEPRAASTTILRCVVDFTRVIVLLYSDEDAYGNSQTKTKDLIKSVLVDPLII
notes: N-terminal deletion of residues 1-226; host and tags only in supplement
[5]
  Km: 9.57 ± 0.24 µM
  kcat: 0.24 ± 0.00533 s⁻¹

B4: CARS (wild-type, full-length) (Lavandula angustifolia) (protein)
chain: MAAPISTNNVCSDDARPVTYHPNVWSDYFLRYTSELTEISVAKKEEHERQKEAIRNLLLQTRDDSTLKLELVDAIQRLGIGYHFEEEIHNSLRNIYDTNPIYNAEDDNLRVAALRFRLIRQQGFPAPCDVFRKFVDEEGEFKSWVSNDVEGLLNLYEASNFAVHGEEILEKALEFCSLRLEFLTQGMTNSLSMRVKEALKIPISKTLTRLGARKFMSMYQEDESHNETLLNFAKLDFNLVQKIHQKELNQITRWWKELDFGKNLPFARDRPVECYFWIVGVYFEPRYGIARTLLTKIIYLASVLDDIYDVYGTLAELTIFTQIIRRWDSDAMDQLPPYMRIYCKALFDVYVEMEEEMGKIRKSYAVEYAKKEMKRLAEMYFQEAQWAFSKYKPTMKEYLKVALISSGYMMMTINSLTTIEDLITEEEFNWILSEPRILRASLTITRLMDDLAGYGTEGKMSAVHYYMAENGVSEGEAFKEVSGIIKSAWKDVNAECVEPRAASTTILRCVVDFTRVIVLLYSDEDAYGNSQTKTKDLIKSVLVDPLII
notes: as for B1
[6]
  Km: 11.34 ± 0.13 µM
  kcat: 0.104 ± 0.00183 s⁻¹
